T1: MBP-SnRK2.6 (Arabidopsis thaliana, UniProt Q940H6 1-362)
T1 construct: SNF1-related protein kinase 2.6 (SnRK2.6, OST1), Arabidopsis thaliana, in pMal-c2X; source: E. coli BL21 (DE3), purified (amylose resin); not shown: MBP, N-terminal, kept
T1 sequence (looked up): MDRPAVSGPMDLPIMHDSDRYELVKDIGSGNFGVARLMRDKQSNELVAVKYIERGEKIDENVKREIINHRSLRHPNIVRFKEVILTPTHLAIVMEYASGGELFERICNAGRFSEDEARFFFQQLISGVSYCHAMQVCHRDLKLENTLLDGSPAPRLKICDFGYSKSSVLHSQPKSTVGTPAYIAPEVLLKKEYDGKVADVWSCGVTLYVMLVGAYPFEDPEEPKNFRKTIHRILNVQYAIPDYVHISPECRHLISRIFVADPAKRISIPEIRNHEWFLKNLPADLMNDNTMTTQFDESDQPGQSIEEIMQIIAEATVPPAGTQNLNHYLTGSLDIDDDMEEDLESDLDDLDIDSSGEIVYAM

B1: GST-AtI-2 (natural protein, Arabidopsis thaliana, UniProt Q9LTK0 1-191, looked up)
chain: MTEPKRGRVQWDEANIVEIESNKPVRQKITEPKTPYHPMMDDDGSLSPRGRAFDECVDDMQRAEELRNVLNDAAASSSRNSSQGSGGGGWSSSDEEEEEADPMDQDEEGSGSGKNERFNAHRKAHYDEFRKVKELRSSGSFYEEEEEEDDGAKGSKSETTTNSRHTKGGNKELDATKTVSGTSSSSSPELI
notes: source: E. coli, purified (glutathione-agarose beads); not shown: GST, N-terminal, kept
B2: GST-TOPP1 (enzyme, Arabidopsis thaliana, UniProt P30366 1-318, looked up)
chain: MAEKPAQEQEQKRAMEPAVLDDIIRRLVEFRNTRPGSGKQVHLSEGEIRQLCAVSKEIFLQQPNLLELEAPIKICGDIHGQYSDLLRLFEYGGFPPEANYLFLGDYVDRGKQSLETICLLLAYKIKYPENFFLLRGNHESASINRIYGFYDECKRRFNVRLWKIFTDCFNCLPVAALIDDRILCMHGGISPELKSLDQIRNIARPMDIPESGLVCDLLWSDPSGDVGWGMNDRGVSYTFGADKVAEFLEKHDMDLICRAHQVVEDGYEFFAERQLVTVFSAPNYCGEFDNAGAMMSIDESLMCSFQILKPSEKKSPFL
notes: also called GST-tagged TOPP1; source: E. coli, purified (glutathione-agarose beads); not shown: GST, N-terminal, kept

Target: T1, MBP-SnRK2.6
Experiment: pull-down; GST-TOPP1 or GST-AtI-2 incubated with MBP-SnRK2.6 in amylose resin, 4 hours at 4°C, washed 4 times with 1X PBS; SDS-PAGE, coomassie blue
Settings: both partners purified

| Binder | binding result |
| --- | --- |
| B1 | binds |
| B2 | binds |
